Assay: yeast display, Sf9 membrane polyspecificity reagent, FACS + sequencing; frameworks hold sequencing errors
Summary of the method: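 A synthetic nanobody library was expressed on Saccharomyces cerevisiae BJ5465 by galactose induction for 36–48 hours. The library was stained for 1 hour at 4 °C with 10% biotinylated, detergent-solubilized Sf9 membrane reagent and enriched with streptavidin microbeads before FACS. Low and high (top ~1%) gates were set on anti-HA fluorescence for expression and streptavidin fluorescence for reagent binding, and each polyreactivity label reflects the gate of origin.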

Row | Sequence | polyreactivity (PSR sort gate)
1 | QVQLVESGGGLVQAGGSLRLSCAASGSTFDPNAMGWYRQAPGKERELVAVIDSGDGTTYYADSVKGRFTISRDNAKNTVYLQMNSLKPEDTAVYYCAVDESTSYYDDHEDYWGQGTQVTVSS | low polyreactivity
2 | QVQLVESGGGLVQAGGSLRLSCAASGSTFDPNTKGWYRQAPGKERELVATITSVDSTNYADSVKGRFTISRDNANNTVYLQMNSLKTEDTAVYYCNADFVRVFFYAYDYWGQGTQVTVSS | low polyreactivity
3 | QVQLVESGGGLVQAGGSLRLSCAASGSTFDPNVMGWYRQAPGKERELVAVITTTGVSTYYADSVKGRFTISRDNAKNTVYLQMNSLKPEDTAVYYCNAKWYWYLTRDAYRYRYTYDYWGQGTQVTVSS | low polyreactivity
4 | QVQLVESGGGLVQAGGSLRLSCAASGSTFDPYAMGWYRQAPGKERELVAAITGGGSTNYADSVKGRFTISRDNAKNTVYLQMNSLKPEDTAVYYCAATIPKPYHSGLRLLGQGTQVTVSS | low polyreactivity
5 | QVQLVESGGGLVQAGGSLRLSCAASGSTFDPYAMGWYRQAPGKERELVATITYSGGRTYYADSVKGRFTISRDNAKNTVYLQMNSLKPEDTAVYYCAARVYTHYREFDYWGQGTQVTVSS | low polyreactivity
6 | QVQLVESGGGLVQAGGSLRLSCAASGSTFDPYAMGWYRQAPGKESELVAAISRNGGRTYYADSVKGRFTISRDNAKNTVYLQMNSLTPEDTAVYYCAARSTGYGSTGRLLWYGHWGQGTQGTVSS | high polyreactivity
7 | QVQLVESGGGLVQAGGSLRLSCAASGSTFDRNAMGWYRQAPGKERELVAAINWRGGSTYYADSVKGRFTISRDNAKNTVYLQMNSLKPEDTAVYYCAKRQYSSDGRGFGYWGQVTQVTVSS | high polyreactivity
8 | QVQLVESGGGLVQAGGSLRLSCAASGSTFDRNAMGWYRQAPGKERELVAAISRRGGRTYYADSVKGRFTISRDNAKNTVYLQMNSLKPEDTAVYYCAAGKITFPMDYWGQGTQVTVSS | high polyreactivity
9 | QVQLVESGGGLVQAGGSLRLSCAASGSTFDRNVMGWYRQAPGKERELVAAISFSGGSTYYADSVKGRFTISRDTAKNTVYLQMNSLKPEDTAVYYCAADDGYSYIYAAGDYWGQGTQVTVSS | low polyreactivity
10 | QVQLVESGGGLVQAGGSLRLSCAASGSTFDRNVMGWYRQAPGKERELVAAISRVSSTNYADSVKGRFTISRDNAKNTVYLQMNSLKPEDTAVYYFAADGAGSIMNYWGQGTQVTVSS | low polyreactivity
11 | QVQLVESGGGLVQAGGSLRLSCAASGSTFDRYALGWYRQAPGKERELVAAITRGGSTYYADSVKGRFTISRDNAKNTVYLQLNSLKPDDTAVYYCAAAHWWVRVRGARYSYWGHGTQVTVSS | high polyreactivity
12 | QVQLVESGGGLVQAGGSLRLSCAASGSTFDRYAMGWYRQAPGKERELVAAISWSGGSTYYADSVKGRFTISRDNAKNTVYLQMNSLKREDTAVYYCARRYARITPVYPPLNYWGQGTQVTVSS | high polyreactivity
13 | QVQLVESGGGLVQAGGSLRLSCAASGSTFDRYAMGWYRQAPGKERELVAAITRGGSTYYADSVKGRFTISRDNAKNTVYLQMNSLKPEDTAVYYCAAAQWWFRVRGARYYYWGQGTQVTVSS | high polyreactivity
14 | QVQLVESGGGLVQAGGSLRLSCAASGSTFDSNAMGWYRQAPGKERELVAAIDYSSDSTYYADSVKGRFTISRDNAKNTVYLQMNSLKPEDTAVYYCAADIPPWGGDYWGQGTQVTVSS | low polyreactivity
15 | QVQLVESGGGLVQAGGSLRLSCAASGSTFDSNVMGWYRQAPGKERELVAAINYSGVRTYYADSVKGRFTISRDNAKNTVYLQMNSLKPEDTAVYYCNARLFSYRYPEGGYWGQGTQVTVSS | high polyreactivity
16 | QVQLVESGGGLVQAGGSLRLSCAASGSTFDSNVMGWYRQAPGKEWELVAAISIGDSTNYADSVKGRFTISRDNAKKTVYLQMNSLKPEDTAVYSCNATYSRGGYWYFGFDWGQGTQVTVSS | low polyreactivity
17 | QVQLVESGGGLVQAGGSLRLSCAASGSTFDSYAMGRYRQAPGKERELVAAITNGGSTYYADSVKGRFTISRDNAKNTVYLQMHSLKPEDTAGYYCATDDYLLDNLYDYWGQGTQVTVSS | low polyreactivity
18 | QVQLVESGGGLVQAGGSLRLSCAASGSTFDSYAMGWYRQAPGKERELVAAITTTGGSTFYADSVKGRFTISRDNAKNTVYLQMNSLKPEDTAVYFCAADDGWQEFEYWGQGTQVTVSS | low polyreactivity
19 | QVQLVESGGGLVQAGGSLRLSCAASGSTFDSYVMGLYRQAPGKERELFAAISSDDSTYYADSVKGRFTISRDNAKNTVYLQMNSLKPEDTAVYYCAATNFRDYYWSWKYYYWGQGTQVTVSS | low polyreactivity
20 | QVQLVESGGGLVQAGGSLRLSCAASGSTFDTNAMGWYRQAPGKERELVAAITSGGNTYADSVKGRFTISRDNAKNTVYLQMNSLKPEDTAVYYCAAEDVYTGWYDYWGQGTQVTVSS | low polyreactivity
21 | QVQLVESGGGLVQAGGSLRLSCAASGSTFDTYAMGGYRQAPGKERELVAAISYPGGNTYYADSVKGRFTISRDNAKNTVYLQMNRLKPEDTAVYYCNADVVDGGLAYDYWGQGTQVTVSS | low polyreactivity
22 | QVQLVESGGGLVQAGGSLRLSCAASGSTFDTYAMGWYRPAPGKERELVAAINSGGGTNYADSVKGLFTISRDNAKNTVYLQMNSLKPEDSSVYYCSTDIRRDAGGVDFDYWGQGTQLTVSS | low polyreactivity

Row | Sequence | polyreactivity (PSR sort gate)
23 | QVQLVESGGGLVQAGGSLRLSCAASGSTFDTYAMGWYRPAPGKERELVAAISRSGTSTYYADSVKGRFTISRDNAKNTVYLQMNSLKPEDSAVYYCAAYGPRVNGEIGREYYYWGQGTQVTVSS | low polyreactivity
24 | QVQLVESGGGLVQAGGSLRLSCAASGSTFDTYAMGWYRQAPGKERELVAAISSGGSTNYADSVKGRFTISRDNAKNTVYLQMNSLKPEDTAVYYCADSNKSVFPVYGTLDEYWGQGTQVTVSS | low polyreactivity
25 | QVQLVESGGGLVQAGGSLRLSCAASGSTFDTYAMGWYRQAPGKERELVAAISYSGASTYYADSVKGRFTISRDNAKNTVYLQMNSLKPEDTAVYYCSADGGYYWLYDYWGQGTQVTVSS | low polyreactivity
26 | QVQLVESGGGLVQAGGSLRLSCAASGSTFDVNALGWYSQAPGKDRELVAAISWNSGSTYYADSVKGRFTISRDNAKNTVYLQMNSLKPEDTAVYYCAATYGTGRRSKYGYWGQGTQVTVSS | high polyreactivity
27 | QVQLVESGGGLVQAGGSLRLSCAASGSTFDVNAMGWYRQAPGKERELVAAISFSGGSTYYADSVKGRFTISRDNAKNTVYLQMNSLKPEDTAVYYCADYDYWGQGTQVTVSS | low polyreactivity
28 | QVQLVESGGGLVQAGGSLRLSCAASGSTFDVYAMGWYRQAPGKERELVAAISRSGGSTYYADSVKGRFTISRDNAKNTVYLQMNSLKPEDTAVSYCNARLARWGSDEYNYWGQGTQVTVSS | low polyreactivity
29 | QVQLVESGGGLVQAGGSLRLSCAASGSTFDVYAMGWYRQAPGKERELVAAITWIGGSTYYADSVKGRFTISRDNAKNTVYLQMNSLKPDDTAVYYCARHDYGWVDYWGQGTQVTVSS | high polyreactivity
30 | QVQLVESGGGLVQAGGSLRLSCAASGSTFDVYAMGWYRQAPGKERELVATITGSGGSTYYADSVKGRFTISRDNAKNTVYLQMNSLKPEDTAVYYCAARYPVSGGYDYWGQGTQVTVSS | low polyreactivity
31 | QVQLVESGGGLVQAGGSLRLSCAASGSTFDYNAMGWYRPAPGKERELVAVISSGTRTYYADSVKGRFTISRDNAKNTVYLQMNSLKPEDTAVYFCNKRFYPEHYYWGQGTLVTVSS | high polyreactivity
32 | QVQLVESGGGLVQAGGSLRLSCAASGSTFDYNAMGWYRQAPGKEREFVAAISFSGSSTYYADSVKGRFTISRDNAKNTVYLQMNSLKPEDTAVYYCAKKVFASYRGYGYWGQGTQVTVSS | high polyreactivity
33 | QVQLVESGGGLVQAGGSLRLSCAASGSTFDYNAMGWYRQAPGKERELVAAITTVGITYYADSVKGRFTISRDNAKNTVYLQMNSLKPEDTAVYYCAARSVRYGGRYDYWGQGTQVTVSS | high polyreactivity
34 | QVQLVESGGGLVQAGGSLRLSCAASGSTFDYNAMGWYRQAPGKERELVAGISGGSSTNYADSVKGRFTISRDNAKNTVYLQMNSLKPEDTAVYYCNAQRLPLRYEMDYWGQGTQVTVSS | low polyreactivity
35 | QVQLVESGGGLVQAGGSLRLSCAASGSTFDYNTMGWYRQAPGKERELVAAISESGGSTYYADSVKGRFTISRDNAKNTVYLQMNSLKPEDTAVYYCATDDFGGYFGEYDYWGQGTQVTVSS | low polyreactivity
36 | QVQLVESGGGLVQAGGSLRLSCAASGSTFDYYAMGWYRQAPGKEREFVASINWNGARTYYADSVKGRFTISRDNAKNTVYLQMNSLKPEDTAVYYCAAYTKRYLYNYWGQGTQVTVSS | high polyreactivity
37 | QVQLVESGGGLVQAGGSLRLSCAASGSTFDYYAMGWYRQAPGKERELVAAISSGGSTNYADSVKGRFTISRDNAKNTVYLQMNSLKPEDTAVYYCAKDHAYTSAPHQYASEYYYWGQGTQVTVSS | low polyreactivity
38 | QVQLVESGGGLVQAGGSLRLSCAASGSTFDYYAMGWYRQAPGKERELVAAISWSGGSTYYADSVKGRFTISRDNEKNTVYLQMNSLKPEDTAVYYCAALYSYISGGYIYDYWGQGTQVTVSS | low polyreactivity
39 | QVQLVESGGGLVQAGGSLRLSCAASGSTFDYYAMGWYRQAPGKERELVAAITSTGRTYYADSVKGRFTISRDNAKNTVYLQMNSLKPEDTAVYYCAADLPWGPLFDYWGQGTQVTVSS | low polyreactivity
40 | QVQLVESGGGLVQAGGSLRLSCAASGSTFDYYTMGWYRQAPGKERELVAAISSSGGSTYYADSVTGRFTISRDNAKNTVYLQMNSLKPEDTAVYDCAARGYHYSYLRGDTGYYYWGQGTQVTVSS | low polyreactivity
41 | QVQLVESGGGLVQAGGSLRLSCAASGSTFEDNAMGWYRQAPGKERELVAVITWTGGSTYYADSVKGRFTISRDNAKNTVYLQMNSLKPEDTAGYYCAADGVVPGRFFWPAHAYDYCGQGTQVTVSS | low polyreactivity
42 | QVQLVESGGGLVQAGGSLRLSCAASGSTFEFYAMGWYRQAPGKERELVASITSSSGPTYYADSVKGRFTISRDNAKNTVYLQMNSLKPEDTAVYYCAKRPIRYYHLLRGNYWGQGTQVTVSS | low polyreactivity
43 | QVQLVESGGGLVQAGGSLRLSCAASGSTFEGNAMGWYRQAPGKERELVAAINSVAITNYADSVKGRFTISRDNAKNTVYLQMNSLKPEDTAVYYCNAQTNRPWGWPIGYDYWGQGTQVTVSS | low polyreactivity

Source: the nanobody polyreactivity screen of Harvey et al. (2022)
